# In patent publication US20150361464A1, “METHODS, REAGENTS AND CELLS FOR BIOSYNTHESIZING COMPOUNDS” (INVISTA North America S.á r.l., priority 2014, published 2015):
# Assays:
# [1] = ω-transaminase enzyme activity assay, reverse direction (5-aminopentanoate to glutarate semialdehyde), cell free extract; format: biochemical; conditions: 10 mM 5-aminopentanoate, 10 mM pyruvate, pH 7.5, 25° C., 4 hours; against the empty vector control; FIG. 15
# Procedure: (§1) A nucleotide sequence encoding an N-terminal His-tag was added to the genes from Chromobacterium violaceum and Rhodobacter sphaeroides encoding the ω-transaminases of SEQ ID NOs: 8 and 10 respectively (see FIG. 10) such that N-terminal HIS tagged ω-transaminases could be produced. Each of the resulting modified genes was cloned into a pET21a expression vector under control of the T7 promoter and each expression vector was transformed into a BL21[DE3] E. coli host. The resulting recombinant E. coli strains were cultivated at 37° C. in a 250 mL shake flask culture containing 50 mL LB media and antibiotic selection pressure, with shaking at 230 rpm. Each culture was induced overnight at 16° C. using 1 mM IPTG.
# (§2) The pellet from each induced shake flask culture was harvested via centrifugation. Each pellet was resuspended and lysed via sonication. The cell debris was separated from the supernatant via centrifugation and the cell free extract was used immediately in enzyme activity assays.
# Enzyme activity assays in the reverse direction (i.e., 5-aminopentanoate to glutarate semialdehyde) were performed in a buffer composed of a final concentration of 50 mM HEPES buffer (pH=7.5), 10 mM 5-aminopentanoate, 10 mM pyruvate and 100 μM pyridoxyl 5′ phosphate. […] The formation of L-alanine from pyruvate was quantified via RP-HPLC.
# [2] = ω-transaminase enzyme activity assay, forward direction (glutarate semialdehyde to 5-aminopentanoate), cell free extract; format: biochemical; conditions: conclusion from reverse and forward direction assays
# Procedure: as §1, §2
# Enzyme activity in the forward direction (i.e., glutarate semialdehyde to 5-aminopentanoate) was confirmed for the transaminase of SEQ ID NO: 10. Enzyme activity assays were performed in a buffer composed of a final concentration of 50 mM HEPES buffer (pH=7.5), 10 mM glutarate semialdehyde, 10 mM L-alanine and 100 μM pyridoxyl 5′ phosphate. Each enzyme activity assay reaction was initiated by adding a cell free extract of the ω-transaminase gene product or the empty vector control to the assay buffer containing the glutarate semialdehyde and incubated at 25° C. for 4 hours, with shaking at 250 rpm. The formation of pyruvate was quantified via RP-HPLC.
molecule,measurement,setting,value
"SEQ ID NO: 8: Chromobacterium violaceum ω-transaminase, N-terminal HIS tagged, cell free extract (protein, listed as Chromobacterium violaceum, N-terminal His tag, Chromobacterium violaceum ω-transaminase, N-terminal HIS tagged, cell free extract) MQKQRTTSQWRELDAAHHLHPFTDTASLNQAGARVMTRGEGVYLWDSEGNKIIDGMAGLWCVNVGYGRKDFAEAARRQMEELPFYNTFFKTTHPAVVELSSLLAEVTPAGFDRVFYTNSGSESVDTMIRMVRRYWDVQGKPEKKTLIGRWNGYHGSTIGGASLGGMKYMHEQGDLPIPGMAHIEQPWWYKHGKDMTPDEFGVVAARWLEEKILEIGADKVAAFVGEPIQGAGGVIVPPATYWPEIERICRKYDVLLVADEVICGFGRTGEWFGHQHFGFQPDLFTAAKGLSSGYLPIGAVFVGKRVAEGLIAGGDFNHGFTYSGHPVCAAVAHANVAALRDEGIVQRVKDDIGPYMQKRWRETFSRFEHVDDVRGVGMVQAFTLVKNKAKRELFPDFGEIGTLCRDIFFRNNLIMRACGDHIVSAPPLVMTRAEVDEMLAVAERCLEEFEQTLKARGLA","acceptance of 5-aminopentanoate as substrate (formation of L-alanine from pyruvate, RP-HPLC)",[1],accepted 5-aminopentanoate as substrate
same,"acceptance of glutarate semialdehyde as substrate and synthesis of 5-aminopentanoate, concluded from reversibility of the ω-transaminase activity",[2],accepted glutarate semialdehyde as substrate and synthesized 5-aminopentanoate
